Measurements reported in the RNAGym collection of RNA variant scans (doi:10.7554/elife.80360).

B1: Hammerhead Ribozyme (parent)
chain: ACCGGAUGUGCUUUCCGGUCUGAUGAGUCCGUGAGGACGAAACAG

Variants of: B1
Assay: self-cleavage, relative activity (ratio to wild type); higher = more cleavage; co-transcriptional

Compared with G8C A41U, U7C U21G is higher in self-cleavage: 0.388 for the first, 0.449 for the second.

First: U7C U21A
Second: U7C U21C
The self-cleavage of the first is lower: 0.327 for the first, 0.403 for the second.

Compared with G8A U32C, G8A U32A is higher in self-cleavage: 1.02 for the first, 1.14 for the second.

Going from G8A U32G to G8C A37C, the self-cleavage falls from 1.09 to 1.05.

First: G8C A37U
Second: G8C A37G
The self-cleavage of the first is lower: 0.842 for the first, 1.2 for the second.

Compared with U7G A37C, U7G A37U is lower in self-cleavage: 1.29 for the first, 0.683 for the second.

Compared with U7G A37G, G8A U24A is higher in self-cleavage: 0.928 for the first, 1.11 for the second.

Going from G8A U24C to G8A U24G, the self-cleavage rises from 0.979 to 1.32.

Going from U7G G36U to U7G G36C, the self-cleavage falls from 0.735 to 0.557.

First: U7G G36A
Second: U7G A23C
The self-cleavage of the first is higher: 0.624 for the first, 0.243 for the second.

Going from U7G A23U to U7G A23G, the self-cleavage rises from 0.228 to 0.273.

Compared with U7G U32A, U7G U32C is lower in self-cleavage: 1.49 for the first, 1.03 for the second.

Compared with U7G U32G, U7C G27C is lower in self-cleavage: 0.796 for the first, 0.598 for the second.

Going from U7C G27A to U7C G27U, the self-cleavage falls from 0.814 to 0.412.

Going from U7G C15U to U7G C15A, the self-cleavage falls from 1.26 to 0.89.

Compared with U7G C15G, G8C A23U is lower in self-cleavage: 0.699 for the first, 0.328 for the second.

Going from G8C A23C to G8C A23G, the self-cleavage falls from 0.45 to 0.376.

First: G8A U21A
Second: G8A U21C
The self-cleavage of the first is lower: 0.475 for the first, 0.742 for the second.

Compared with G8A U21G, G8A U28G is higher in self-cleavage: 0.4 for the first, 1.16 for the second.

Going from G8A U28C to G8A U28A, the self-cleavage falls from 1.36 to 0.738.

Going from U7G A34G to U7G A34C, the self-cleavage falls from 1.67 to 1.44.

First: U7G A34U
Second: G8A G36C
The self-cleavage of the first is higher: 1.53 for the first, 0.508 for the second.

Compared with G8A G36A, G8A G36U is higher in self-cleavage: 0.424 for the first, 0.5 for the second.

First: G8C A40C
Second: G8C A40G
The self-cleavage of the first is higher: 0.428 for the first, 0.372 for the second.

Compared with G8C A40U, U7G U12A is higher in self-cleavage: 0.286 for the first, 1.24 for the second.

Compared with U7G U12G, U7G U12C is higher in self-cleavage: 1.23 for the first, 1.42 for the second.

First: U7G C11A
Second: U7G C11G
The self-cleavage of the first is higher: 1.6 for the first, 1.52 for the second.

First: U7G C11U
Second: G8A G17A
The self-cleavage of the first is higher: 1.12 for the first, 0.539 for the second.

Compared with G8A G17U, G8A G17C is lower in self-cleavage: 0.837 for the first, 0.493 for the second.

First: U7C G25U
Second: U7C G25C
The self-cleavage of the first is lower: 0.312 for the first, 0.319 for the second.

Going from U7C G25A to U7G U21G, the self-cleavage rises from 0.402 to 0.426.

Compared with U7G U21C, U7G U21A is lower in self-cleavage: 0.641 for the first, 0.345 for the second.

Compared with U7G A44G, U7G A44C is lower in self-cleavage: 1.82 for the first, 0.411 for the second.

First: U7G A44U
Second: G8A A37U
The self-cleavage of the first is lower: 0.422 for the first, 0.731 for the second.

Going from G8A A37C to G8A A37G, the self-cleavage falls from 1.06 to 0.966.

First: U7G A41C
Second: U7G A41G
The self-cleavage of the first is higher: 0.422 for the first, 0.408 for the second.

First: U7G A41U
Second: G8A C29G
The self-cleavage of the first is lower: 0.342 for the first, 0.667 for the second.

Compared with G8A C29A, G8A C29U is higher in self-cleavage: 0.565 for the first, 0.966 for the second.

Compared with U7C G45A, U7C G45C is lower in self-cleavage: 0.653 for the first, 0.454 for the second.

Going from U7C G45U to U7C U19A, the self-cleavage falls from 0.622 to 0.397.

First: U7C U19G
Second: U7C U19C
The self-cleavage of the first is lower: 0.413 for the first, 0.526 for the second.

First: U7C U28A
Second: U7C U28C
The self-cleavage of the first is lower: 0.504 for the first, 0.792 for the second.

First: U7C U28G
Second: U7G C43A
The self-cleavage of the first is higher: 0.538 for the first, 0.382 for the second.

Going from U7G C43G to U7G C43U, the self-cleavage falls from 0.427 to 0.389.

Going from G8C C15U to G8C C15G, the self-cleavage falls from 1.26 to 0.469.

Going from G8C C15A to U7G G17A, the self-cleavage falls from 0.837 to 0.666.

Compared with U7G G17U, U7G G17C is higher in self-cleavage: 0.548 for the first, 0.552 for the second.

Compared with U7G A40C, U7G A40G is lower in self-cleavage: 0.396 for the first, 0.291 for the second.

Going from U7G A40U to G8A C20G, the self-cleavage falls from 0.401 to 0.381.

First: G8A C20A
Second: G8A C20U
The self-cleavage of the first is lower: 0.501 for the first, 0.594 for the second.

First: G8A A23G
Second: G8A A23U
The self-cleavage of the first is lower: 0.325 for the first, 0.383 for the second.

Compared with G8A A23C, U7C G10U is higher in self-cleavage: 0.396 for the first, 1.12 for the second.

First: G8A C30A
Second: G8A C30U
The self-cleavage of the first is higher: 0.929 for the first, 0.826 for the second.

First: G8A C30G
Second: U7G U13A
The self-cleavage of the first is lower: 1.04 for the first, 1.66 for the second.

Compared with U7G U13C, U7G U13G is higher in self-cleavage: 1.45 for the first, 1.67 for the second.

Compared with U7G G10U, U7G G10C is higher in self-cleavage: 1.46 for the first, 1.74 for the second.

Compared with U7G G10A, U7G A42G is lower in self-cleavage: 1.72 for the first, 0.33 for the second.

Going from U7G A42U to U7G A42C, the self-cleavage falls from 0.326 to 0.271.

Compared with U7G U19G, U7G U19C is higher in self-cleavage: 0.304 for the first, 0.512 for the second.

First: U7G U19A
Second: G8A G31C
The self-cleavage of the first is lower: 0.398 for the first, 0.889 for the second.

Going from G8A G31A to G8A G31U, the self-cleavage rises from 0.849 to 1.14.

Compared with G8A A42U, G8A A42C is higher in self-cleavage: 0.297 for the first, 0.373 for the second.

Compared with G8A A42G, G8C C38U is higher in self-cleavage: 0.306 for the first, 0.979 for the second.

First: G8C C38A
Second: G8C C38G
The self-cleavage of the first is higher: 0.8 for the first, 0.596 for the second.

First: G8A G22U
Second: G8A G22C
The self-cleavage of the first is higher: 0.384 for the first, 0.273 for the second.

Going from G8A G22A to G8A G18U, the self-cleavage rises from 0.403 to 0.635.

Going from G8A G18C to G8A G18A, the self-cleavage rises from 0.574 to 0.664.

Compared with G8C A42C, G8C A42U is lower in self-cleavage: 0.363 for the first, 0.266 for the second.

Compared with G8C A42G, U7C U32C is higher in self-cleavage: 0.311 for the first, 0.949 for the second.

First: U7C U32A
Second: U7C U32G
The self-cleavage of the first is higher: 1.02 for the first, 0.626 for the second.

First: G8A A26C
Second: G8A A26G
The self-cleavage of the first is higher: 0.577 for the first, 0.371 for the second.

First: G8A A26U
Second: U7C G39A
The self-cleavage of the first is higher: 0.899 for the first, 0.469 for the second.

Compared with U7C G39C, U7C G39U is higher in self-cleavage: 0.331 for the first, 0.426 for the second.

First: U7G G22U
Second: U7G G22C
The self-cleavage of the first is lower: 0.369 for the first, 0.389 for the second.

Compared with U7G G22A, U7C G31A is higher in self-cleavage: 0.33 for the first, 1.12 for the second.

Going from U7C G31C to U7C G31U, the self-cleavage rises from 0.803 to 1.1.

First: U7C G35C
Second: U7C G35A
The self-cleavage of the first is higher: 0.849 for the first, 0.732 for the second.

First: U7C G35U
Second: G8C C30A
The self-cleavage of the first is lower: 0.439 for the first, 0.708 for the second.

Compared with G8C C30U, G8C C30G is lower in self-cleavage: 0.981 for the first, 0.886 for the second.

Compared with U7G G45C, U7G G45U is higher in self-cleavage: 0.441 for the first, 0.526 for the second.

Compared with U7G G45A, U7G A26C is lower in self-cleavage: 0.559 for the first, 0.265 for the second.

Going from U7G A26G to U7G A26U, the self-cleavage rises from 0.289 to 0.717.

First: G8A G39U
Second: G8A G39C
The self-cleavage of the first is higher: 0.369 for the first, 0.298 for the second.

Work on G8A G39A yielded a self-cleavage of 0.417.
